In paper PMC8660799, “Cryo-EM reveals unique structural features of the FhuCDB Escherichia coli ferrichrome importer” (Communications Biology, 2021):
Numbering of substitutions follows the chain as printed.

Assays:
FhuCB with FhuB R390A = biological target: T1, FhuCB with FhuB R390A (Escherichia coli, UniProt P07821 1-265; P06972 1-660, R390A, red-tris-NTA 2nd generation dye on the His-tag); test: MST; 40 nM FhuCB (wild type or FhuB mutant) in detergent, His-tag labelled with red-tris-NTA 2nd generation dye; serial dilution of 1.6 μM FhuD with substrate ferrichrome; with ATP-Mg; Monolith NT.115pico, 20% LED power, medium MST power; conditions: both partners purified
T1 construct: FhuC, ATPase subunit, Escherichia coli; as in Dm2; FhuB, membrane subunit, Escherichia coli, 660 residues; Mutant made on the FhuCB-pET15b construct by direct mutagenesis; source: E. coli BL21(DE3) C43, purified (TALON, Superose 6 gel filtration) in LMNG; not shown: His-tag, N-terminal, kept; copies: 2 + 1
T1 sequence (looked up) 1: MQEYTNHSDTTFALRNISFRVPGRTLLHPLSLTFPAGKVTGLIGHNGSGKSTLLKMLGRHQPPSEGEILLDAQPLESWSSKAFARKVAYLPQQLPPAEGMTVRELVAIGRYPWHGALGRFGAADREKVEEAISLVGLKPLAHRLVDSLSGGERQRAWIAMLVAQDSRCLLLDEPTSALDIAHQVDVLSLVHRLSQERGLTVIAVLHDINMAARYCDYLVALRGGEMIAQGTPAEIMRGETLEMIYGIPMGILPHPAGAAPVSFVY
T1 sequence (looked up) 2: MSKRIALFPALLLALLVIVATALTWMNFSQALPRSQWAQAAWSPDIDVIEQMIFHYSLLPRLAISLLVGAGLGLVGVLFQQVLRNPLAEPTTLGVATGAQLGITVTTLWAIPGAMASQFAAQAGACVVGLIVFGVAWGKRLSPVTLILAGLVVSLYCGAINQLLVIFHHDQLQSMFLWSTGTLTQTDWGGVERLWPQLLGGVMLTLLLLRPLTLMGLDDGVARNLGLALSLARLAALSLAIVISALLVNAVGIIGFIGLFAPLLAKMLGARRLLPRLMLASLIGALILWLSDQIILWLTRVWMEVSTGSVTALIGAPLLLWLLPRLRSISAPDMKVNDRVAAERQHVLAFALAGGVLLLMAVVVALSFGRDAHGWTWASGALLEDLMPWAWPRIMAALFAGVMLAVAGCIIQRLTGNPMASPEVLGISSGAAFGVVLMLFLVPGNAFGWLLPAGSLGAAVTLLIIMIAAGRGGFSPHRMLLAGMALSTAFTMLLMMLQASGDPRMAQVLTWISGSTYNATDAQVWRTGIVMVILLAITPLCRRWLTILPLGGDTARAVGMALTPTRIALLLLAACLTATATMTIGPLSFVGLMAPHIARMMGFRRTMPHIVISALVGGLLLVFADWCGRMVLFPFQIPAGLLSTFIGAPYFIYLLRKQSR

FhuCB with FhuB E304A = biological target: T2, FhuCB with FhuB E304A (Escherichia coli, UniProt P07821 1-265; P06972 1-660, E304A, red-tris-NTA 2nd generation dye on the His-tag); test: as above; conditions: both partners purified
T2 construct: FhuC, ATPase subunit, Escherichia coli; as in Dm2; FhuB, membrane subunit, Escherichia coli, 660 residues; Mutant made on the FhuCB-pET15b construct by direct mutagenesis; source: E. coli BL21(DE3) C43, purified (TALON, Superose 6 gel filtration) in LMNG; not shown: His-tag, N-terminal, kept; copies: 2 + 1
T2 sequence (looked up) 1: T1 sequence (looked up) 1
T2 sequence (looked up) 2: T1 sequence (looked up) 2 with E304A, A390R

Kd (FhuCB with FhuB R390A): 75.8 nM | Kd (FhuCB with FhuB E304A): 15.1 nM
B1: FhuD (natural protein, Escherichia coli)
chain: AAIDPNRIVALEWLPVELLLALGIVPYGVADTINYRLWVSEPPLPDSVIDVGLRTEPNLELLTEMKPSFMVWSAGYGPSPEMLARIAPGRGFNFSDGKQPLAMARKSLTEMADLLNLQSAAETHLAQYEDFIRSMKPRFVKRGARPLLLTTLIDPRHMLVFGPNSLFQEILDEYGIPNAWQGETNFWGSTAVSIDRLAAYKDVDVLCFDHDNSKDMDALMATPLWQAMPFVRAGRFQRVPAVWFYGATLSAMHFVRVLDNAIGGKA
notes: In 'FhuD-ferrichrome' the protein was loaded with the small molecule ferrichrome; also called FhuD-ferrichrome (when loaded with ferrichrome)
